# Experimental data as given in the DeepSol protein solubility set.
# Experiment: soluble on expression in E. coli; label from the status in PepcDB or PDB records
row,Sequence,soluble on expression in E. coli
1,MPRYPFRRFGFGALRRLLYLWVRSETINQSAFTLKIDRSKPVLYVLQQPSVSDLAVVDTECRKAGLPRPVMPVAVGDAIEPAAFFYLTPEPDWLGRQDKRGASPTLVRMLAAVGQNGLDDAQIIPVSVFWGQSPDSESSPWKLLFADNWAVTGRLRKLARILILGRKTRVQFSAPIHLRELVEQGKGHERTLRMVNRILRVHFRNLKTAVIGPDLSHRRNLVKGLLRAPLVRQAISEECESERISQEKAEGIALRYANEIASDFSYPVIRFLEVILSWFWNKLYEGVKVNHIERVQDVAQGNEIVYVPCHRSHIDYLLLSYLLFRNGLTPPHIAAGINLNMPVIGSILRRGGAFFMRRSFKGNQLYTAVFNEYLHTLFSRGFSTEYFVEGGRSRTGRMLHPRTGMLAITLRSFLRDSRRPIVFVPVYIGYERVLEGRTYLGELRGATKKKESIFDLFKVVGALKQRFGQVWVNFGEPIHLDQFLDRHQPDWQDQDLGPEYRPDWLPQTTNLLAKDVARHLNDAAAINPVNLVALALLSTSRQALDESALARILDLYLALLRKVPYSPSATLPDGDGQALIEYVKSMNLLAEQKDALGRILYLDEQNAVLATYYRNNVLHVFALPALIASFFQSNSRISREQLLRFARALYPYLQAELFIRWSLDELDAVIDQWLAALVEQDLLRQENDTFIRPAPSSRQYVLLILLARSVTQTLQRFYMAIALLLNAGQNALTAEELENLCTVMAQRLSILHGLNAPEFFDKSLFRHFIQTLLDLRVLRKDEAGKLSYHELLGELAEGAAKRVLPAEIRLSIRQVALERPAEEAAAESN,not soluble
2,MPSCDPGPAPACLPTKTFRSYLPRCHRTYSCVHCRAHLAKHDELISKSFQGSHGRAYLFNSVVNVGCGPAEQRLLLTGLHSVADIFCESCKTTLGWKYEQAFETSQKYKEGKYIIEMSHMVKDNGWD,soluble
3,MPSDSTSNIDTTQRQSADLMAEGFGAGVNAPFLVIVDTHEVNADSTALQPLIEAQEPEEGEFDREQAARFATYMYVTQTYNSNIDVKNAQIISVNDDFTAAQILVTPYTGPADKETPELMHVLRAQEAQIEDVTGTELGTTGFTAVQLDITEQLEDAMPVYLEHHHHHH,not soluble
4,MPSPSPKGLPVKQYAVQSQLPVYEWPDVGSGEYDVGVVASFGRLLNEALILKFPYGILNVHPSCLPRWRGPAPVIHTVLHGDTVTGVTIMQIRPKRFDVGPILKQETVPVPPKSTAKELEAVLSRLGANMLISVLKNLPESLSNGRQQPMEGATYAPKISAGTSCIKWEEQTSEQIFRLYRAIGNIIPLQTLWMANTIKLLDLVEVNSSVLADPKLTGQALIPGSVIYHKQSQILLVYCKDGWIGVRSVMLKKSLTATDFYNGYLHPWYQKNSQAQPSQCRFQTLRLPTKKKQKKTVAMQQCIE,soluble
5,MPSVESFELDHNAVVAPYVRHCGVHKVGTDGVVNKFDIRFCQPNKQAMKPDTIHTLEHLLAFTIRSHAEKYDHFDIIDISPMGCQTGYYLVVSGETTSAEIVDLLEDTMKEAVEITEIPAANEKQCGQAKLHDLEGAKRLMRFWLSQDKEELLKVFG,soluble
6,MPTLRPESPEEVQEAVRAYPRLRAQGGGTKPALSTPKEGEVLLDLSRLRGLLAYEPEEFVFTAFAGTPIAEVEEALRAHGQYLPFDPPLAGKGATLGGTVAAGLSGPLRHRYGGLRDFLLGVRFVDGEGKVVRGGGKVVKNAAGFPFHRLMVGALGAFGVMVELSFKVFPRPRTTRTLRVRREGLEEALADLERLRLLPLDLLALDFIPPATLELRLGGFERSVEARLKRLQDLLGEGEVLAEDEAHWEAVRDLGFLEGSPVWVKVPAKPHLIPRLEALPLGPRRYLDGGEVLYAGTTEEGLKALREAGLPHLVLRGAEAPLFPEPQGAFFAGVKKALDPKGRFPLG,soluble
7,MPTVQTIYSLEKAPEATKDKEPLVVYATSVDWKWVFSYPEQDIETVNYLNIPVDRPILCKISSADSMASLWIPQLGGQKYAMAGMLMDQYLQADKVGTYEGRNANFTGEHFADQEFDVNAVTEKDFNSWVKKTQNEAPKLTKEKYDELMLPENVDELTFSSTHLKYVDHGQDAEYAMEARKRLGYQAVSPHCKTDPFENVKKNEFKKSDDTEE,not soluble
8,MPTYKLTYFDGRGLAEPARMLFHLGGVPFEDSRIPVDMKTGLIMNPELADVKKKAPFGKYPVLKIDDIEIAQSAAINRYLARQFGFAGKNPIEEAQADSYIDQCQEYNTSFRACMYATLQGKPEEEVQKIREEVYIPAQNKFYEIFSDILNRNKSGFLVGDSLTWADLVIADHLYSLDTMGMLTHEDAWRCETLKKFQEKIYEHPLLKGYIASRPKGAF,not soluble
9,MPVDQSRQYLRIRDQLAADIAQGVLQVKLPSERELAERFLCTRITLREALQQLETEGLVYRENRRGWFVAPPRIRYNPTRTTGFMEYVSAQGRQPRTETLHAERRAAGAWLAKRMGLEDSAPVYFLQRRRWVDERPVLIELIALDAGWCPGLLDHDLDTSLMSLLRERFGLQPTRCQLAMHPTALNAAQAEPLQLAPGSPALYLERLSYAEGQRVVEFDQEFWRPDALEIVLDAAYPGA,not soluble
10,MPVFHTRTIESILEPVAQQISHLVIMHEEGEVDGKAIPDLTAPVAAVQAAVSNLVRVGKETVQTTEDQILKRDMPPAFIKVENACTKLVQAAQMLQSDPYSVPARDYLIDGSRGILSGTSDLLLTFDEAEVRKIIRVCKGILEYLTVAEVVETMEDLVTYTKNLGPGMTKMAKMIDERQQELTHQEHRVMLVNSMNTVKELLPVLISAMKIFVTTKNSKNQGIEEALKNRNFTVEKMSAEINEIIRVLQLTSWDEDAWASKDTEAMKRALASIDSKLNQAKGWLRDPSASPGDAGEQAIRQILDEAGKVGELCAGKERREILGTCKMLGQMTDQVADLRARGQGSSPVAMQKAQQVSQGLDVLTAKVENAARKLEAMTNSKQSIAKKIDAAQNWLADPNGGPEGEEQIRGALAEARKIAELCDDPKERDDILRSLGEISALTSKLADLRRQGKGDSPEARALAKQVATALQNLQTKTNRAVANSRPAKAAVHLEGKIEQAQRWIDNPTVDDRGVGQAAIRGLVAEGHRLANVMMGPYRQDLLAKCDRVDQLTAQLADLAARGEGESPQARALASQLQDSLKDLKARMQEAMTQEVSDVFSDTTTPIKLLAVAATAPPDAPNREEVFDERAANFENHSGKLGATAEKAAAVGTANKSTVEGIQASVKTARELTPQVVSAARILLRNPGNQAAYEHFETMKNQWIDNVEKMTGLVDEAIDTKSLLDASEEAIKKDLDKCKVAMANIQPQMLVAGATSIARRANRILLVAKREVENSEDPKFREAVKAASDELSKTISPMVMDAKAVAGNISDPGLQKSFLDSGYRILGAVAKVREAFQPQEPDFPPPPPDLEQLRLTDELAPPKPPLPEGEVPPPRPPPPEEKDEEFPEQKAGEVINQPMMMAARQLHDEARKWSSKGNDIIAAAKRMALLMAEMSRLVRGGSGTKRALIQCAKDIAKASDEVTRLAKEVAKQCTDKRIRTNLLQVCERIPTISTQLKILSTVKATMLGRTNISDEESEQATEMLVHNAQNLMQSVKETVREAEAASIKIRTDAGFTLRWVRKTPWYQ,soluble
11,MPVILNFSSERVLSESELEALRHVGRVSQSEQLVVRGRTMRLHHISFMDSFSVEPVSGGLLDRLSARGHRLLAENLEIQLNRGHTFLQAFRLYMEQSRATPCTRQNVSSAIQNKINSHAFTVSHQDFSCHEQHLNCPITLCIPETGVFVRNAKNSEICSLYDHNALTELIRRNAPHPLSREPFVPEMIVSKDECHFNLIEQYFCILATQNICTRI,not soluble
12,MPVMSLIEQYEAAIYRGEIDSDPEQREILEHMQRLAEDLQKKSDSWFPWRKKHPIKGLYIYGPVGVGKTYLVDLFYQHIDEEKKARFHFHHFMQQIDAQLRRLQGKKNPLQYIAKEMAKSIRLLCFDEFLVHDVAYAMILAELLQALHHYGVVLVVSSNTRPDELYLNGVHRERFIPAIEIIKKNCEVLNLNQKRDYRLGRQPLLEAYLYPLNEQTQEAMEKQFALITREEDCKGFITVQNRDIPYIKYGTRSIWFAFDVICNFPRSQLDYLEIADRFDNVFLSDVYQLTESHTAQAIMFIHFIDVMYDRGIKLIISADVPAEELYVKGEMKETFKRTLSRLIEMQSVDYLSRHPRRLVKEMLLEHHHHHH,not soluble
13,MPVSSRRCGMITRREAERLCKSFLGDNTPPRLPDDFAFNVQHKCAWGCRGSFLPSRYNSSRAKCIKCSYCGMFFSPNKFIFHSHRITTNDRYVQPDAANFNSWRRHMSLSGNDYDEKIIHAWEDVKAMFNGGTRKRLVGSSINPRSPGSPTQSTAVSSGVGSSSCGSPTSFERDTNEVDGKSGSSLPQRSQIDSQYNYGTVAAAAAVVGVTAVAAATELCSGLHVAAEGPTLSAALRKKNPLEHHHHHH,not soluble
14,MPVVYKRILLKLSGEALMGDGHYGIDRAVVEHIVVEVAGVLQLGVEVAIVVGGGNIFRGMKSAGDGMDRVTADYMGMLATTMNALALHDAMRRNGVVSRVQSALRIDQVVEPYVRGKALRYLDERKVVVFAAGTGNPFFTTDTAAALRGMEMNANIVLKATKVDGIYTSDPLKNKDAQRFQSLTFDEAISKNLQVMDATALTLCRDQKLPINVFSIFKTGALKRVIMGEDEGTSVFV,not soluble
15,MQAQQLPYEFFSEENAPKWRGLLVPALKKVQGQVHPTLESNDDALQYVEELILQLLNMLCQAQPRSASDVEERVQKSFPHPIDKWAIADAQSAIEKRKRRNPLSLPVEKIHPLLKEVLGYKIDHQVSVYIVAVLEYISADILKLVGNYVRNIRHYEITKQDIKVAMCADKVLMDMFHQDVEDINILSLTDEEPSTSGEQTYYDLVKAFMAEIRQYIRELNLIIKVFREPFVSNSKLFSANDVENIFSRIVDIHELSVKLLGHIEDTVEMTDEGSPHPLVGSCFEDLAEELAFDPYESYARDILRPGFHDRFLSQLSKPGAALYLQSIGEGFKEAVQYVLPRLLLAPVYHCLHYFELLKQLEEKSEDQEDKECLKQAITALLNVQSGMEKICSKSLAKRRLSESACRFYSQQMKGKQLAIKKMNEIQKNIDGWEGKDIGQCCNEFIMEGTLTRVGAKHERHIFLFDGLMICCKSNHGQPRLPGASNAEYRLKEKFFMRKVQINDKDDTNEYKHAFEIILKDENSVIFSAKSAEEKNNWMAALISLQYRSTLERMLDVTMLQEEKEEQMRLPSADVYRFAEPDSEENIIFEENMQPKAGIPIIKAGTVIKLIERLTYHMYADPNFVRTFLTTYRSFCKPQELLSLIIERFEIPEPEPTEADRIAIENGDQPLSAELKRFRKEYIQPVQLRVLNVCRHWVEHHFYDFERDAYLLQRMEEFIGTVRGKAMKKWVESITKIIQRKKIARDNGPGHNITFQSSPPTVEWHISRPGHIETFDLLTLHPIEIARQLTLLESDLYRAVQPSELVGSVWTKEDKEINSPNLLKMIRHTTNLTLWFEKCIVETENLEERVAVVSRIIEILQVFQELNNFNGVLEVVSAMNSSPVYRLDHTFEQIPSRQKKILEEAHELSEDHYKKYLAKLRSINPPCVPFFGIYLTNILKTEEGNPEVLKRHGKELINFSKRRKVAEITGEIQQYQNQPYCLRVESDIKRFFENLNPMGNSMEKEFTDYLFNKSLEIEPRNPKPLPRFPKKYSYPLKSPGVRPSNPRPGT,soluble
16,MQCYSIVGINYIQIYKAVTRNGIKHNIVVIKNSDYIFTITHYSPRTEYWTIVGNTDRQFYDANVLHNCLYIIGGMINNRHVYSVSRVDLKTKKWKTVTNMSSLKSEVSTCVNDGKLYVIGGLEFSISTGIAEYLKHGTSKWKRLPNLITPRYSGASVFVNDDIYVMGGVYTTMRNM,not soluble
17,MQEIIASVDHIKFDLEIAVEQQLGAQPLPFPGMDKSGAAVCEFFLKAACGKGGMCPFRHISGEKTVVCKHWLRGLCKKGDQCEFLHEYDMTKMPECYFYSKFGECSNKECPFLHIDPESKIKDCPWYDRGFCKHGPLCRHRHTRRVICVNYLVGFCPEGPSCKFMHPRFELPMGTTEQPPLPQQTQPPAKQRTPQVIGVMQSQNSSAGNRGPRPLEQVTCYKCGEKGHYANRCTKGHLAFLSGQ,soluble
18,MQEISFRDDILPLKDKLFRLALRITFDRAEAEDVVQDTMIRVWNKREEWTQFGSIEAYCLTVAKNLAIDRSQKKEAQNVELTPEMEEESEISGPYDQ,not soluble
